Numbered stars: 1 amine (or outer) side, 2 acyl side, 3 side chain; on linkers, the order of the positions; unused ones are H or OH. Bridge positions count the residues as written; N and C are the ends. Square brackets hold non-standard residues; d marks the D form. Side chains are listed from the residue outwards. Ends that are not written are not given here. * marks the point of attachment. C18 diacid = O=C(O)CCCCCCCCCCCCCCCCC(=O)*; γGlu = O=C(O)[C@H](CCC(=O)[*:2])N[*:1]; Aib = CC(C)(N)C(=O)O
T1: human amylin receptor (calcitonin receptor co-expressed with receptor activity modifying protein, RAMP3) (human, UniProt P30988 25-474; O60896 24-148)
T1 sequence (looked up) 1: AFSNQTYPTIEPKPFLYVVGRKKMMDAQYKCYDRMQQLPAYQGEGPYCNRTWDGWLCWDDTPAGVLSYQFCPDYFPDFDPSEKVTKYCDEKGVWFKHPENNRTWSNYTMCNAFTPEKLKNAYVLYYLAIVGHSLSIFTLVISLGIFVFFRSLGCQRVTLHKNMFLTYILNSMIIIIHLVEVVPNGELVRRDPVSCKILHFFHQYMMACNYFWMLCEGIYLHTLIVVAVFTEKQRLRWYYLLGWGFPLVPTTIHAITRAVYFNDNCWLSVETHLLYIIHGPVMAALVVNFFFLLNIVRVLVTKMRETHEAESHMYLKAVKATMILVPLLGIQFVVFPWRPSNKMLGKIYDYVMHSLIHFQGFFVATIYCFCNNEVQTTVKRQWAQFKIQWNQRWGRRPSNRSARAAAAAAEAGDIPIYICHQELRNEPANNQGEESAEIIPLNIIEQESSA
T1 sequence (looked up) 2: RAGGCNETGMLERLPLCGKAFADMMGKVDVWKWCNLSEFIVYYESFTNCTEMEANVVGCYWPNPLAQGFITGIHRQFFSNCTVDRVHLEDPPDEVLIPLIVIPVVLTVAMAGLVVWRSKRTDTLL

T2: human calcitonin receptor (human, UniProt P30988 25-474)
T2 sequence (looked up): T1 sequence (looked up) 1

B1: Peptide 78 (SEQ ID NO: 78) (peptide)
peptide: K([γGlu-C18 diacid])KCNTATCATQRLANFLVHSS[Aib]NFGP[Aib]LPPTNVGSNTY-NH2
modifications: disulfide 3-8; N-terminus assumed
SMILES: CC(C)C[C@H](NC(=O)[C@H](CCCNC(=N)N)NC(=O)[C@H](CCC(N)=O)NC(=O)[C@@H](NC(=O)[C@H](C)NC(=O)[C@@H]1CSSC[C@H](NC(=O)[C@H](CCCCN)NC(=O)[C@@H](N)CCCCNC(=O)CC[C@H](NC(=O)CCCCCCCCCCCCCCCCC(=O)O)C(=O)O)C(=O)N[C@@H](CC(N)=O)C(=O)N[C@@H]([C@@H](C)O)C(=O)N[C@@H](C)C(=O)N[C@@H]([C@@H](C)O)C(=O)N1)[C@@H](C)O)C(=O)N[C@@H](C)C(=O)N[C@@H](CC(N)=O)C(=O)N[C@@H](Cc1ccccc1)C(=O)N[C@@H](CC(C)C)C(=O)N[C@H](C(=O)N[C@@H](Cc1c[nH]cn1)C(=O)N[C@@H](CO)C(=O)N[C@@H](CO)C(=O)NC(C)(C)C(=O)N[C@@H](CC(N)=O)C(=O)N[C@@H](Cc1ccccc1)C(=O)NCC(=O)N1CCC[C@H]1C(=O)NC(C)(C)C(=O)N[C@@H](CC(C)C)C(=O)N1CCC[C@H]1C(=O)N1CCC[C@H]1C(=O)N[C@H](C(=O)N[C@@H](CC(N)=O)C(=O)N[C@H](C(=O)NCC(=O)N[C@@H](CO)C(=O)N[C@@H](CC(N)=O)C(=O)N[C@H](C(=O)N[C@@H](Cc1ccc(O)cc1)C(N)=O)[C@@H](C)O)C(C)C)[C@@H](C)O)C(C)C
B2: Peptide 79 (SEQ ID NO: 79) (peptide)
peptide: K([γGlu-C18 diacid])KCNTATCATQRLANFLVHSS[Aib]NFGPI[Aib]PPTNVGSNTY-NH2
modifications: disulfide 3-8; N-terminus assumed
SMILES: CC[C@H](C)[C@H](NC(=O)[C@@H]1CCCN1C(=O)CNC(=O)[C@H](Cc1ccccc1)NC(=O)[C@H](CC(N)=O)NC(=O)C(C)(C)NC(=O)[C@H](CO)NC(=O)[C@H](CO)NC(=O)[C@H](Cc1c[nH]cn1)NC(=O)[C@@H](NC(=O)[C@H](CC(C)C)NC(=O)[C@H](Cc1ccccc1)NC(=O)[C@H](CC(N)=O)NC(=O)[C@H](C)NC(=O)[C@H](CC(C)C)NC(=O)[C@H](CCCNC(=N)N)NC(=O)[C@H](CCC(N)=O)NC(=O)[C@@H](NC(=O)[C@H](C)NC(=O)[C@@H]1CSSC[C@H](NC(=O)[C@H](CCCCN)NC(=O)[C@@H](N)CCCCNC(=O)CC[C@H](NC(=O)CCCCCCCCCCCCCCCCC(=O)O)C(=O)O)C(=O)N[C@@H](CC(N)=O)C(=O)N[C@@H]([C@@H](C)O)C(=O)N[C@@H](C)C(=O)N[C@@H]([C@@H](C)O)C(=O)N1)[C@@H](C)O)C(C)C)C(=O)NC(C)(C)C(=O)N1CCC[C@H]1C(=O)N1CCC[C@H]1C(=O)N[C@H](C(=O)N[C@@H](CC(N)=O)C(=O)N[C@H](C(=O)NCC(=O)N[C@@H](CO)C(=O)N[C@@H](CC(N)=O)C(=O)N[C@H](C(=O)N[C@@H](Cc1ccc(O)cc1)C(N)=O)[C@@H](C)O)C(C)C)[C@@H](C)O

What was measured:
[1] = target: T1, human amylin receptor (calcitonin …); assay: cell-based or functional assay
[2] = target: T2, human calcitonin receptor; assay: cell-based or functional assay

Binder	EC50 (cAMP production) [1] [nM]	Ratio (EC50 hCTR / EC50 hAMYR3) [1]	EC50 (cAMP production) [2] [nM]
B1	0.288	11	3.15
B2	0.659	7	4.8
